Test results reported in the DeepSol protein solubility set.

Assay: soluble on expression in E. coli; label from the status in PepcDB or PDB records

## MTKITVLSGKGGTGKTTVSVNMAKALSESYRVQLLDADVEEPNDHIFFNVDVSFEEPVHLMIPVVDNSVCIRCGECASTCQFGAISVFPSGTFVFESLCHGCGACSIMCPVNAISERPKEIGKIRFGTADGNISFGMGILNIGERTGVPVIRKLKKHIDEKADVVIVDAPPGTSCPVVESLRNTDFALLVTEPTAFGLHDLKLAVELTKEMGIPSGIVVNRYIPGNTIIEEFADEEGIPVLLKIPFKREIASLCAEGKLIVEAFQDMKKDFLELFEKIEVMVRLEHHHHHH
  soluble on expression in E. coli: soluble

## MAGDPMFKKRLNKDKINDCYTWEEELPDGSYDMGFHGNLNHMEKGKSGYVTHKQLDKKLEVFKQDLLVELSEKFVTKEEFRAQGKQIKELQIEQKAQGKTLQLILEALQGINKRLDKLESKLEHHHHHH
  soluble on expression in E. coli: soluble

## MSLHLIPRPKSVINHEGEFFIERDTEIILSSELSFEDLNLAIMIQKEIEKVLDFKLNINKLFMDKKYSNSIILREFKFENEEEYKIEIKENQVIIEGFGAGLFYGCQSFRQLVREFGACIPNLTIEDSPYFKYRGFYHDVTRGMVPTLDTLKRLVDKAAFYKINQLQLYIEHTFAFKGMSEVWMDKDPLTAEEILILDKYCKERHVELVPSLSTFGHLYEALRSKSFRELCELEIGDEEYSFVDRMAHHTLDVTNPKSLDFVESMLLEFIPLFSSDKFNICCDETFDLGKGKSREKAEKLGVGKIYTEFLNKVYNIVKRFNKNVMFWGDIIVGYPELLSDIPEDLTCLTWNYHPQANDVATKIIAENNKVQYVCPGVGGWNMMMNLIEGSFSNIRRMVNHGMKYGAIGVLNTNWGDYGNINLLANSMPSMIYGAGISWNPKEEEFNEIFKSISLMEFGDESMKVVSLMDKLSKNQVAGWGELVRWKEKFNEREETKEEIKNIDTLKVFEGYKVASEVRREFIKLLKNTEDKEAIQSFIVSSKGWELIDKFFMVLLEREFNKKSLLDIDKKDLAKDLELWFYDYTSIWRKYNKESELNRIREVIVYMCSYLRGEGHHHHHH
  soluble on expression in E. coli: soluble

## MADLRLEREFAVAPEALFAWVSDGAKLLQWWGPEGLHVPADQHDLDFTRLGPWFSVMVNGEGQRYKVSGQVTHVKPPQSVGFTWGWHDDDDRRGAESHVMFIVEPCAKGARLILDHRELGDDEMSLRHEEGWTSSLRKLAAELALEHHHHHH
  soluble on expression in E. coli: soluble

## MAELYVKPGNKERGWNDPPQFSYGLQTQTGGPKRTPLTKRVAAPQDGSPRAPETSGPPPVDHPPPSSKASRPPPMGSCPATGVEPPSSPVIESETLIEDVLRPLEQALEDCHGHTKKQVCDDISRRLALLREQWAGGKLSIPVKKRMALLVQELLHHQWDAADDIHRSLMVDHVTEVSQWMVGVKRLIAEKKSLSSEETKEEKFTVEPENQTIPGFQQPS
  soluble on expression in E. coli: soluble

## GMTKAREFLGTGWKFPVAAGADGAMVLSSAEEDIAESIRIILGTARGERVMRPDFGCGIHDRVFSVINTTTLGLIENEVKEALILWEPRIELLSVTASPREAAEGRLLIDIEYRVRSTNTRFNLVYPFYLKESA
  soluble on expression in E. coli: soluble

## MPGWRSICAVMGLTFTGCVFIQGSARAQDGNKATAVLELYTSQGCKSCPPADKNFAKYADDPNVLALSFHVNYWDYMGWRDTLATQDNTDRQNSYRNAFHAKMIYTPQAIINGAVEANGRNGAAINAKIAANKLDVPVSIQQLNDGRLSIDIGAGKKPRDPVHVVLFYFRDSATIPITEGENAGKAITYRNTVSDIDTIGMWDGKPLKIELPASELKRKDVTGCAVVLQETRSDNSLGPMHGAAMFKQKRPVSFLEHHHHHH
  soluble on expression in E. coli: not soluble

## MDTEKLMKAGEIAKKVREKAIKLARPGMLLLELAESIEKMIMELGGKPAFPVNLSINEIAAHYTPYKGDTTVLKEGDYLKIDVGVHIDGFIADTAVTVRVGMEEDELMEAAKEALNAAISVARAGVEIKELGKAIENEIRKRGFKPIVNLSGHKIERYKLHAGISIPNIYRPHDNYVLKEGDVFAIEPFATIGAGQVIEVPPTLIYMYVRDVPVRVAQARFLLAKIKREYGTLPFAYRWLQNDMPEGQLKLALKTLEKAGAIYGYPVLKEIRNGIVAQFEHTIIVEKDSVIVTQDMINKST
  soluble on expression in E. coli: soluble

## MGSDKIHHHHHHIASQENCSNKEDLTNRAEDFQSDFVKTMDIIKEHHVAYGNSNARNMLEVREQILQEKGFDDIYVQKKHAENCTAIAELPRVLAKIDELKNTGDEKTVLEYVSRGLLAGNVFDWGAKEVVKMMNSESGLTFQTAIDHVENRPWLFDGFDSFYKKHKEYKSVLIFVDNSGFDYILGIIPFARELLRNGSRVIICANTSPALNDLTYREMVELAPELKNADSDLAKFIDSNQMMFVQTGQESPCMDARRVHQDLNETVKKFNTDLVVIEGMGRALHTNFNVQFKCDSLKAAVIKTQWLADRLGGKMFSVVFKHE
  soluble on expression in E. coli: not soluble

## MSVLSIIACEMLEDELVYVLSKDQNAVRLILVENRQCFRFVRKLKSGNCQARIFPPERISFFIKQMNRPASMKIPNFLLKFPFFGKIHENMKEKNRETITVVVNILKLGLHADCDLLKSEIYRNMKEMVEFSDGILIFYGNCGRPLRGLEAEFKDFNCPLYFLEDEKGNIVDDCISIALGGNDNYAEVMQSGNGTGMIYLTPMWASSWKEMRMEPGDTSDFNVSFLKRHYRKVVKISNEISMGSEFDKNVLNYARTFDMSIIEMKGSMEIAMKSYMNARNGICKKDPIQKSSLEHHHHHH
  soluble on expression in E. coli: not soluble

## GPLGSPEFGYWITCCPTCDVDINTWVPFYSTELNKPAMIYCSHGDGHWVHAQCMDLEERTLIHLSEGSNKYYCNEHVQIARA
  soluble on expression in E. coli: soluble

## MHLTREVNIMSILSAVSRVINNFSTEIKNRVVEVGSNLKKSTEEFIGEVVIKAAVNRLKQGMLNALSSSNDTTKDNGNDLSTNSPDIEDVSAPTLSSKKKTEANTTLVGSTGIMQKLLGNIGVNSEQSIEVLSKHFNGAVERFTQDVSKAANEAVCEKIKSIQPEDVVKGINSLIGNTLKVDSESGDTTLSFKLESAVQILGVILAAMGMLMFASQTKSTEQKTLEIEHLPTEEIQPPSLAIH
  soluble on expression in E. coli: not soluble

## MEQNIATAQVSVARPNWDKSRLVSRIVHLGCGAFHRAHQALFTHHLLEKSDSDWGICEVNLMPGNDARLIANLKAQNLLYTVAERGAESTELKIIGSMKEALHPEFDGHAGILAAMARPETAIVSLTVTEKGYCTDPASGELDVNNPLIQNDLAHPQQPKSAIGYIVEALNMRREQGLKAFTVLSCDNVRENGHVAKAAVLGLAKARDAALAAWIADNVTFPCTMVDRIVPAATEETLQLVADQLGVYDPCAIACEPFRQWVIEDNFVNGRPDWDTVGAQFVADVVPFEMMKLRMLNGSHSFLAYLGYLGGYDTIADTMTNPAYRRAALALMLDEQAPTLSMPEGTDLEGYANLLIARFTNPSLKHRTWQIAMDGSQKLPQRLLDPVRLHLQQGDDYRRLTLGVAGWMRYVGGVDEQGKTIDVVDPLLAQYQAIHQQYQTPEERVRGLLAIESIFGNDLPKNHEFVQAVTDAYQQLLQNGAKATVEALAK
  soluble on expression in E. coli: not soluble

## MSLTVKMGFIGFGKSANRYHLPYVMIRETLEVKTIFDLHVNEKAAAPFKEKGVNFTADLNELLTDPEIELITICTPAHTHYDLAKQAILAGKSVIVEKPFCDTLEHAEELFALGQEKGVVVMPYQNRRFDGDYLAMKQVVEQGFLGEINEVETHIDYYRPGSITEQGPKENGSFYGLGIHLMDRMIALFGRPDQVTYDIRNNEVSEAVDNYFDVDLHYGSKLKVKVKTNHSVASPYPRFIVHGSNGSFIKYGEDQQENDLKAGIMPDAPGFGEDSPMYYGEVTYRNGNGDWIKKQIKTPVGDYGRYYDAVYETLKNGAPQLVTKEQALTNIEILEAGFLNPSPSVYHLKENEGHHHHHH
  soluble on expression in E. coli: soluble

## MASGENLAPRDAKVISVILRSLGIEECEPKVIIQLLEFAYRYTTDVLEDALLFAKHTGRTHITTSDVKLALQTKVGRHFVPPPPRQYLSEISTMVNSKPLTIPDGENLIRVPPSSSALLNLDYEVLRKDSDKKRRIY
  soluble on expression in E. coli: not soluble

## KETAAAKFERQHMDSGGGGSGHMENGYTYEDYKNTAEWLLSHTKHRPQVAIICGSGLGGLTDKLTQAQIFDYGEIPNFPRSTVPGHAGRLVFGFLNGRACVMMQGRFHMYEGYPLWKVTFPVRVFHLLGVDTLVVTNAAGGLNPKFEVGDIMLIRDHINLPGFSGQNPLRGPNDERFGDRFPAMSDAYDRTMRQRALSTWKQMGEQRELQEGTYVMVAGPSFQTVAECRVLQKLGADAVGMSTVPEVIVARHCGLRVFGFSLITDKVIMDYESLEKANHEEVLAAGKQAAQKLEQFVSILMASIPLPDKAS
  soluble on expression in E. coli: soluble

## MKIAGIDEAGRGPVIGPMVIAAVVVDENSLPKLEELKVRDSKKLTPKRREKLFNEILGVLDDYVILELPPDVIGSREGTLNEFEVENFAKALNSLKVKPDVIYADAADVDEERFARELGERLNFEAEVVAKHKADDIFPVVSAASILAKVTRDRAVEKLKEEYGEIGSGYPSDPRTRAFLENYYREHGEFPPIVRKGWKTLKKIAEKVESEKTQDMINKST
  soluble on expression in E. coli: soluble

## GPGSMPHSMDTTLFSDENRIDRGDSLLFHCVQLSQGGTDSHRYFFGCYFPRWRGFYMDEARELPGPLGYNVTRHFPAFPFDVYLKDDGEHFLTDDFQIGSIFTLGGPLNQRDDGQKRYKVVHCDDSQLRTRTGKTLAFIGNNVSGLLQQTHRVSGEAIDALKRIREAYIFNVGNGIPEVGIKAMGRHFRKVGSDGRRWMSYEGIVRFVKDSRNFNATLSFSDTQRTEEDVNTVATCIYNAFPKNEEECIDYDFFMDYVRGPMSQERKDAVWNIFRRMDYDRDGNLNIIDIQACYNTQDHPTCSVDHLFQSDKMLKGFLTIWDENERCGLVPYAEFLDYYNGVSAVLEDDKVFFDVLNNQWKLL
  soluble on expression in E. coli: soluble

## GKDFKYNIGFNLSDVKNKVIDLRGYKSSTTELTAKIEGQPLNAIFGFETLGICDNQELYDKYAPMMQKYNPKWGMGDIIIKDRTGEGVINDEDRTVIGNSIPRFTFGLNLGFEYKGFDFSCFFQGVGKADGYVTMEAIQPMGINGARKEHYKESFNPQDPKPGAYFPRILSSDYNYAYMSHWVQDASYIRLKNLQIGYSFKIKGLNQLRVYASGENLFTATKYRTWDPETPVGARGFYPNVAVYSMGVNLNF
  soluble on expression in E. coli: not soluble

## MAFLSQLQGGFAQLKQKAEAAAPSIADSLNQLKEAPKFMESAFKTGLNKVKLDSLGKVLNVPSLGRTQSPIDIVPVITAFGEHLQNAHFEVTYESTGEFKAVNDGNSIWLMREGNSSELAISFLPEEQYHLDAVNFHWATEPMNGSEHTIGGVGYAGEMHLIHRNTRFATMADALKQPNGVIAIAVFLNESHDDNAVFSPLINLLPQVIYKGSECKLCSFDFQTFFPVAEKTKEFWMYEGSETTDPFRETVNWIVIRAALPISSHQLDKLREVRAGRYDEEFSDKVPMKPLRPIQNPSSRTIQSSFRSVAGAPDLGFRQ
  soluble on expression in E. coli: not soluble

## STREHPPEPLDFFIWTVEDVGSWLEEINLGGYRQIFKENGVNGEYLESMSVFTTEQILHFIRRHHMKWGDFITLCKELRRIKVACLKGEQRVRRPWWAPSCLSVVFVKAAKRNRQSRVVSLKLES
  soluble on expression in E. coli: soluble

## MSLKPVGLNYFSEKKGLLTDEDLMEDEHYCGMSFRGDEKKSIFGIFDGYGGIGAARETRRTLPNIIQKLIEQGLDSKEILEKGFSEVDEGMNKEEFMDIGCTCTLIYIWEEDNKVYIRSGNVGDSTCFVKKMNKGKPEIITLSQDHKVTSACEQKRMKEAGITLVEGQKRINGVGVARTLANHFVKNLNIGMIGTPYISPAIVLESGDEIILCSDGIWDVITPEKAFEMMENTQVSEAPKVIMEESMKITECRDNVTVIVVKILEGHHHHHH
  soluble on expression in E. coli: not soluble

## MSLGYRVGNSDSTSLLSAFAPPERAKKKSKEKRPLQAARFLSLLYPKTDPHSAVQDPSLVHEEHQTRLAYLQDRLCSTGDILKNTRTLETIAAYKQAVKEFVQYAIKHNYTTESKSSIRIDRGTGMPDTVIFTKIKVIDQKLASFVRELMSHQVDQLTVLQKTEEIYGMLVDLLIEGHHHHHH
  soluble on expression in E. coli: soluble
